Test results published in US20050255113A1, “Methods and compositions for inhibiting polypeptide accumulation associated with neurological disorders” (New York State Department of Health and Abgenix, Inc., priority 1999, published 2005).
No end group written: not given here.

Tests used:
[1] = molecular target: T1, biotinylated peptide corresponding to the 17 N-terminal amino acid residues of huntingtin (Nt-HD) (UniProt P42858 1-17); assay: SPR, BIAcore 2000; HD peptide (1-17) with C-terminal biotin on a streptavidin chip, sFv in flow
T1 construct: range 1-17; Synthetic peptide; Captured on streptavidin (beads, plates or a BIAcore chip); also called biotinylated Nt-HD; biotinylated HD-peptide
T1 peptide (looked up): MATLEKLMKAFESLKSF-biotin
Method: (§1) For regeneration of the surface after binding of intrabody, 5 μl of 50 mM NaOH containing 1 M NaCl was injected, resulting in a return to baseline. […] The koff was determined from the dissociation part of the sensorgram at the highest concentration of intrabody analyzed by using a flow rate of 20 μl/min. The Kd was calculated as koff/kₒₙ.
(§2) To characterize the precise binding properties of the intrabody of the invention, further qualitative and quantitative studies of sFv binding to immobilized antigen were conducted in vitro.

[2] = molecular target: T1, biotinylated peptide corresponding to …; assay: SPR, BIAcore 2000; HD peptide (1-17) with C-terminal biotin on a streptavidin chip, sFv in flow; 1:1 Langmuir model
Method: as §1, §2

[3] = molecular target: T1, biotinylated peptide corresponding to …; assay: BIAcore 2000 surface plasmon resonance, C4 sFv at 60, 80 and 100 nM over biotinylated HD peptide on a streptavidin sensor chip
Method: as §1, §2

B1: α-Nt-HD-C4 sFv (purified soluble sFv) (scFv)
scFv: QVQLQESGGGLVQPGGSLRLSCAASGFTFSSYSMSWVRQAPGKGLEWVAVISYDGSNKYYADSVKGRFTISRDNSKNTLYLQMNSLRAEDTAVYYCARDRYFDLWGRGTLVTVSSGGGGSGGGGSGGGGSQSALTQPASVSGSPGQSITISCTGTSSDIGAYNYVSWYQQYPGKAPKLLIYDVSNRPSGISNRFSGSKSGDTASLTISGLQAEDEADYYCSSFANSGPLFGGGTKVTVL
notes: Human sFv (VH-linker-VL) from a phage display library; Expressed in E. coli from pSYN-1 and purified on Ni-NTA; In the first ELISA screens it was used as bacterial supernatant from pHEN-1; Two subclones (clone 1, clone 2) were purified; they are treated here as the same molecule; also called N-HD-C4 sFv; anti-huntingtin intrabody C4 sFv; not shown: hexaHis tail from the pSYN-1 vector (sFv is also …)
[1]
  Ka: 1.3e+08 M⁻¹
[2]
  Kd: 7.9 nM
[3]
  koff: 0.0015 s⁻¹
  kon: 190000 M⁻¹ s⁻¹
